B1: M29 (antibody, V domains shown)
VH: EVQLQQSGPELVKPGASVKMSCKASGYIFTSYVMYWVKQKPGQGLEWIGYINPYNDGTKYNEKFKGKATLTSDKSSSTAYMELSSLTSEDSAVYYCARYYDYDYYFDYWGQGTTLTVSS
VL: DIQMTQSPSSLSASLGGKVTITCKASQDINKYIAWYQHKPGKGPRLLIHYTSTLQPGIPSRFSGSGSGRDYSFSISNLEPEDIATYYCLQYDYLWTFGGGTKLEIK
B2: G12 (antibody, V domains shown)
VH: QVQLQQPGAELVKPGASMKMSCKASGYTFPSSNIHWLKQTPGQGLEWIGVIYPGNGDTSYNQKFKDKATLTTDKSSSTAYMQLSSLTSEDSAIYFCARVYNWHFDVWGAGTTVTVSS
VL: NIVLTQSPASLAVSLGQRATISCRASESVDGYGDIFMLWYQQKPGQPPKLLIYFASNLESGVPARFSGSGSRTDFTLTIDPVEADDAATYYCQQNNEDPYTFGGGTKLEIK
B3: M22 (antibody, V domains shown)
VH: QVQLQQPGAELVKPGASVKLSCKASGYTFTRYWMHWVKQRPGQGLEWIGNIDPSDTETHYNQQFKDKATLTVDKSSSTAYMQLSSLTSEDSAVYYCAIYYGNPSYYAMDYWGQGTSVTVSS
VL: DIVMTQSPSSLTVTAGEKVTMSCKSSQNLLNSGNQKKYLNWYQQKPGQPPKLLIYWASTRESGVPDRFTGSGSGTDFTLTISSVQAEDLAVYFCQNDYSYPFTFGAGTKLELK
B4: M26 (antibody, V domains shown)
VH: EVQLQQSGPELVKPGASVKMSCKASGYTFTSYFIHWVKQKPGQGLEWIGFINPYNDGSKYNEKFKGKATLTSDKSSSTAYMELSSLTSEDSAVYYCTRDDGYYGYAMDYWGQGTLVTVSS
VL: DIQMTQSPSSLSASLGERVSLTCRATQELSGYLSWLQQKPDGTIKRLIYAASTLDSGVPKRFSGNRSGSDYSLTISSLESEDFADYYCLQYAIYPYTFGGGTKLEIK

Molecular target: T1, CLL-1 (UniProt Q5QGZ9 65-265, limits assumed)
T1 sequence (looked up): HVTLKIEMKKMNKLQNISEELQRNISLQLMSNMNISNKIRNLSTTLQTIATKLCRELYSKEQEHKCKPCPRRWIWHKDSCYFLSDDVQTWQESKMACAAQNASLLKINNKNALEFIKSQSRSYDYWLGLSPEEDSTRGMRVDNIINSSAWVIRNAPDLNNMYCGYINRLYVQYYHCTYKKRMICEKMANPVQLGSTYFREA
Test: method not stated (Table 2, affinity of antibodies for CLL-1)

| Binder | Kd [nM] |
| --- | --- |
| B1 | 1.48 |
| B2 | 0.07 |
| B3 | 0.388 |
| B4 | 0.214 |

— patent US20200216515A1 (CELLECTIS, published 2020)
